B1: Dlx3I Oligo (dsDNA)
DNA 1: GAGCTATTTAATTAAGTGAAA
DNA 2: TTTCACTTAATTAAATAGCTC
B2: Dlx3II Oligo (dsDNA)
DNA 1: GTTGAGAAAATTATCAAACTGA
DNA 2: TCAGTTTGATAATTTTCTCAAC

Target: Dlx3 (recombinant) (UniProt O60479 1-287)
Assay: EMSA; anti-Dlx3 supershift; cold competitor 100x; EMSA as described previously (binding buffer not given); 5% native polyacrylamide gel in 1x TBE; 100-fold molar excess of unlabeled competitor
Details: protein: recombinant; label: 32P; blunt

Chain of Dlx3 (recombinant) (O60479 whole entry): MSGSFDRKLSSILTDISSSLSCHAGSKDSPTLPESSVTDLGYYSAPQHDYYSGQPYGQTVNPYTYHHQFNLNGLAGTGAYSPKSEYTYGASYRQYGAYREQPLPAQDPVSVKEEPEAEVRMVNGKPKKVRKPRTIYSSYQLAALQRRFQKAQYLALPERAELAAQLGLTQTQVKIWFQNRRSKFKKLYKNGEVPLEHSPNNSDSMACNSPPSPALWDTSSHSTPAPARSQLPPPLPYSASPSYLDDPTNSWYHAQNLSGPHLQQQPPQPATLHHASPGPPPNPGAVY

Row | Binder | binding result
1 | B1 | binds
2 | B2 | binds
